Columns and labels:
Format in all cases: physicochemical
[1] = Circular dichroism thermal stability, heating 20° C. to 95° C.; details: 10 mM phosphate buffer pH 7.4; heated 20° C. to 95° C.
Protocol: (§1) Protein secondary structures were assessed using Circular Dichrosim (CD). CD spectra were measured with a Jasco J-720W spectropolarimeter using a 1.0 mm path length cell. Protein samples in 10 mM phosphate buffer (pH=7.4) were at 25-30 μM protein concentration. Samples were analyzed at wavelength ranges of […]. Data were expressed in terms of relative ellipticity [θ]; (mdeg). To determine thermal stability of proteins, samples were subjected to incremental increase in temperature at a ramp of 2° C./min from 20° C. to 95° C. Stability and protein unfolding were monitored at 220 and 215 for α-helix and β-sheet secondary structures, respectively. Data are expressed in terms of relative ellipticity [θ], reported in mdeg. For SEQ ID NO: 43 and its point mutant variants, no changes to the α-helix-dominated structure were observed upon heating up to 95° C. […] Additionally, protein melting temperature (Tm) determination was performed by monitoring protein unfolding using SYPRO Orange dye (Molecular Probes). In brief, 0.1 mg/mL protein sample in 20 μL total volume PBS buffer were mixed with 24, of 10× SYPRO Orange dye. Dye intercalation into the hydrophobic protein core following protein unfolding was assayed using the C1000 Touch Thermal Cycler with CFX96 Deep Well Real-Time System (BioRad). Samples were heated from 20° C. to 95° C. with stepwise increments of 0.5° C. per minute and a 5 sec hold step for every point, followed by fluorescence reading. Tm were calculated by analyzing the derivatives of Relative florescence Units (RFU). FIG. 17D illustrates this SYPRO Orange melting assay of Peptides.

[2] = Resistance to reduction by DTT, RP-HPLC; details: 10 mM DTT; HPLC vs non-reduced peptide
Outline: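 Peptide (12.5 μg from a 2 mg/ml stock, or 0.015 mM final in PBS) was held 30 min at room temperature with or without 10 mM DTT. Reduced and non-reduced forms were compared by C-18 RP-HPLC using a 5–45% acetonitrile/0.1% TFA gradient over 10 min, with detection at 214 and 280 nm.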

[3] = SYPRO Orange melting assay; details: heating from 20° C. to 95° C.
Protocol: as §1

[4] = Resistance to reduction by reduced glutathione (GSH), HPLC; details: 10 mM reduced glutathione (GSH); HPLC vs non-reduced peptide
Outline: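 Peptide stability under reducing conditions was tested in 10 mM DTT and in 10 mM GSH, with analysis by HPLC.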

Question: For “GSPDEYIERAKECCKKQDIQCCLRIFDESKDPNVMLICLFCW [SEQ ID NO: 43]”, which “CD secondary structure signature before (Pre) and after (Post) incubation at 95° C.” value [1] is on record?
Answer: identical

Question: What about the “resistance to reduction by DTT (in words)” value [2] of the same sequence?
Answer: partially resistant

Question: What about the “melting temperature (Tm)” value [3] of the same sequence?
Answer: no melting temperature could be determined

Question: And the “resistance to GSH reducing conditions” value [4]?
Answer: resistant

Reference: US20190375786A1, “STABLE PEPTIDES AND METHODS OF USE THEREOF” (Fred Hutchinson Cancer Research Center, priority 2016, published 2019)
